Residue numbers refer to the chain shown, from its start. In names and notes the source's numbering stands. Blank lines part the entries; values can stand above or below the binder they belong to.
Experiments:
rHuman EGF R/Fc Chimera [1] = molecular target: T1, rHuman EGF R/Fc Chimera (human, UniProt P00533 25-645); assay: ECL Multispot (MSD) assay, antigens spotted on plate, 10 nM Fab; blank of this well 254
T1 construct: Bought from R&D Systems; not shown: Fc part of a bought chimera

[2] = molecular target: T2, rHuman P-Cadherin/Fc Chimera (human, UniProt P22223 108-654); assay: as above
T2 construct: Bought from R&D Systems; not shown: Fc part of a bought chimera

rHuman ErbB2/Fc Chimera [3] = molecular target: T3, rHuman ErbB2/Fc Chimera (human, UniProt P04626 23-652); assay: as above
T3 construct: Bought from R&D Systems; not shown: Fc part of a bought chimera

[4] = molecular target: T4, Recombinant Human DLL4 (delta-like protein 4) (human, UniProt Q9NR61 27-524); assay: as above
T4 construct: Bought recombinant protein; also called rHuman DLL4

[5] = molecular target: T5, rHuman HGF R/c-MET/Fc Chimera (human, UniProt P08581 25-932); assay: as above
T5 construct: Bought from R&D Systems; also called HGF R/Fc; not shown: Fc part of a bought chimera

[6] = molecular target: T6, rHuman IGF-1 sR (insulin-like growth factor-1 soluble receptor) (human, UniProt P08069 31-932); assay: as above
T6 construct: Bought soluble receptor

rHuman EGF R/Fc Chimera [7] = molecular target: T1, rHuman EGF R/Fc Chimera; assay: ECL Multispot (MSD) assay, antigens spotted on plate, 10 nM Fab; blank of this well 184
[8] = molecular target: T2, rHuman P-Cadherin/Fc Chimera; assay: as above
rHuman ErbB2/Fc Chimera [9] = molecular target: T3, rHuman ErbB2/Fc Chimera; assay: as above
[10] = molecular target: T4, Recombinant Human DLL4 (delta-like …); assay: as above
[11] = molecular target: T5, rHuman HGF R/c-MET/Fc Chimera; assay: as above
[12] = molecular target: T6, rHuman IGF-1 sR (insulin-like growth …); assay: as above
[13] = molecular target: T7, rHuman P-Cadherin/Fc Chimera, CF (R&D Systems Cat#861-PC) (human, UniProt P22223 108-654); assay: ECL multispot (MSD), antigen spotted; blank spot of this well 271
T7 construct: Bought protein

[14] = molecular target: T8, rHuman IGF-1 sR, CF (R&D Systems Cat#391-GR) (human, UniProt P08069 31-932); assay: as above
T8 construct: Bought soluble receptor; also called insulin-like growth factor-1 soluble receptor

[15] = molecular target: T9, rHuman Erythropoietin R/Fc Chimera, CF (R&D Systems Cat#963-ER) (human, UniProt P19235 25-250); assay: as above
T9 construct: Bought protein; also called EPO R; EPO R/Fc
T9 sequence (looked up): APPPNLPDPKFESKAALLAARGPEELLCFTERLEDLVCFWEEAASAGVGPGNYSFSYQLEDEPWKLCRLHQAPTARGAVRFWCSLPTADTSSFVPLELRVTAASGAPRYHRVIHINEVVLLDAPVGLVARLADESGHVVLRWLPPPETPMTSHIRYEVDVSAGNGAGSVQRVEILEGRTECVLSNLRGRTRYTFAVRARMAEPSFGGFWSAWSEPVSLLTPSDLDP

[16] = molecular target: T10, rHuman Notch-1/Fc Chimera, CF (R&D Systems Cat#3647-TK) (human, UniProt P46531 19-526); assay: as above
T10 construct: Bought protein

[17] = molecular target: T11, rHuman EGF R/Fc Chimera, CF (R&D Systems Cat#344-ER) (human, UniProt P00533 25-645); assay: as above
T11 construct: Bought protein; also called epidermal growth factor receptor

[18] = molecular target: T12, Recombinant Human DLL4 (R&D Systems Cat#1506-D4/CF) (human, UniProt Q9NR61 27-524); assay: as above
T12 construct: Bought recombinant protein; also called delta-like protein 4; rHuman DLL4

[19] = molecular target: T13, rHuman HGF R/c-MET/Fc Chimera, CF (R&D Systems Cat#358-MT/CF) (human, UniProt P08581 25-932); assay: as above
T13 construct: Bought protein; also called HGF R/Fc; hepatocyte growth factor receptor

[20] = molecular target: T14, rHuman ErbB2/Fc Chimera, CF (R&D Systems Cat#1129-ER) (human, UniProt P04626 23-652); assay: as above
T14 construct: Bought protein; also called human epidermal growth factor 2 receptor

[21] = molecular target: T15, rHuman CD44/Fc Chimera, CF (R&D Systems Cat#3660-CD) (human, UniProt P16070 21-220); assay: as above
T15 construct: Bought protein

[22] = molecular target: T7, rHuman P-Cadherin/Fc Chimera, CF (R&D …); assay: ECL multispot (MSD), antigen spotted; blank spot of this well 273
[23] = molecular target: T8, rHuman IGF-1 sR, CF (R&D Systems …); assay: as above
[24] = molecular target: T9, rHuman Erythropoietin R/Fc Chimera, CF …; assay: as above
[25] = molecular target: T10, rHuman Notch-1/Fc Chimera, CF (R&D …); assay: as above
[26] = molecular target: T11, rHuman EGF R/Fc Chimera, CF (R&D …); assay: as above
[27] = molecular target: T13, rHuman HGF R/c-MET/Fc Chimera, CF (R&D …); assay: as above
[28] = molecular target: T14, rHuman ErbB2/Fc Chimera, CF (R&D …); assay: as above
[29] = molecular target: T15, rHuman CD44/Fc Chimera, CF (R&D Systems …); assay: as above
[30] = molecular target: T7, rHuman P-Cadherin/Fc Chimera, CF (R&D …); assay: ECL multispot (MSD), antigen spotted; blank spot of this well 209
[31] = molecular target: T8, rHuman IGF-1 sR, CF (R&D Systems …); assay: as above
[32] = molecular target: T9, rHuman Erythropoietin R/Fc Chimera, CF …; assay: as above
[33] = molecular target: T10, rHuman Notch-1/Fc Chimera, CF (R&D …); assay: as above
[34] = molecular target: T11, rHuman EGF R/Fc Chimera, CF (R&D …); assay: as above
[35] = molecular target: T13, rHuman HGF R/c-MET/Fc Chimera, CF (R&D …); assay: as above
[36] = molecular target: T14, rHuman ErbB2/Fc Chimera, CF (R&D …); assay: as above
[37] = molecular target: T15, rHuman CD44/Fc Chimera, CF (R&D Systems …); assay: as above
Recombinant Human DLL4 [38] = molecular target: T16, Recombinant Human DLL4 (human, UniProt Q9NR61 27-524); assay: ECL (MSD) multispot binding assay, DLL4 signal over blank spot
T16 construct: also called delta-like protein 4; rHuman DLL4

Recombinant Human DLL4 [39] = molecular target: T16, Recombinant Human DLL4; assay: ECL (MSD) multispot binding assay, DLL4 spotted on plate, Fab in solution

T13 sequence (P08581 25-932, change not shown): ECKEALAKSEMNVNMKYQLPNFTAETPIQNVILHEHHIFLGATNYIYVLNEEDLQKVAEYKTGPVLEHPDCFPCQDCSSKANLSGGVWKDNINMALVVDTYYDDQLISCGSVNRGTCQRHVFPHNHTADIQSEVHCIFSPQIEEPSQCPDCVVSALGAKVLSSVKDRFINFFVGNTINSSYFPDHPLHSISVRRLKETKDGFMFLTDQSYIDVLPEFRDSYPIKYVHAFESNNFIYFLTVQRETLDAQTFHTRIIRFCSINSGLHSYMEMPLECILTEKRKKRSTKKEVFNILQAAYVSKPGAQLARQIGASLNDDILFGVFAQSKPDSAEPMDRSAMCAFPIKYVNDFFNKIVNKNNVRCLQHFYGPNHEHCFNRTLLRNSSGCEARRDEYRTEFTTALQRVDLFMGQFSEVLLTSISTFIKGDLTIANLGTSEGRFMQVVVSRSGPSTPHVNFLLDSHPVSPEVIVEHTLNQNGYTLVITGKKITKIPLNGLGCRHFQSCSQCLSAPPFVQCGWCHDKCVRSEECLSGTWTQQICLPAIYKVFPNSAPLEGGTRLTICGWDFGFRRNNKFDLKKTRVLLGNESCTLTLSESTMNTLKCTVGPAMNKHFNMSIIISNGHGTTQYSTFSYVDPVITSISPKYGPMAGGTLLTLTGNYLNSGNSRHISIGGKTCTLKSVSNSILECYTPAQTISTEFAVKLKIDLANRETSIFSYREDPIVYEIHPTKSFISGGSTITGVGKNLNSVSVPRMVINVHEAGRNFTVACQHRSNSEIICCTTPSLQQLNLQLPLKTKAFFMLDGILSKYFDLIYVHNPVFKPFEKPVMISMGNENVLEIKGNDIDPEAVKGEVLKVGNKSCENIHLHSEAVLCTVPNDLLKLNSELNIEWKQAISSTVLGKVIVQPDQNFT
T5 sequence (P08581 25-932, change not shown): as above

- ECL signal (rHuman EGF R/Fc Chimera [1]): 209
- ECL signal [2]: 138
- ECL signal (rHuman ErbB2/Fc Chimera [3]): 351
- ECL signal [4]: 148000
- ECL signal [5]: 176
- ECL signal [6]: 306
- ECL signal (rHuman EGF R/Fc Chimera [7]): 409
- ECL signal [8]: 240
- ECL signal (rHuman ErbB2/Fc Chimera [9]): 322
- ECL signal [10]: 132000
- ECL signal [11]: 263
- ECL signal [12]: 173
B1: Fab VH1-46_IGHD6-6*01_IGHJ1*01 S102A/S103P/S104F/H111F & L6_IGKJ1*01 (Fab, V domains shown)
VH: QVQLVQSGAEVKKPGASVKVSCKASGYTFTSYYMHWVRQAPGQGLEWMGIINPSGGSTSYAQKFQGRVTMTRDTSTSTVYMELSSLRSEDTAVYYCAREEYAPFSAEYFQFWGQGTLVTVSS
VL: not shown
notes: Fab made in E. coli; VH was cloned into Plasmid A (CH1, His6 and Flag tags) and VL into Plasmid C (kappa constant region); also called APFF; H:APFF & L:wt

- ECL signal [13]: 296
- ECL signal [14]: 199
- ECL signal [15]: 275
- ECL signal [16]: 228
- ECL signal [17]: 216
- ECL signal [18]: 1280
- ECL signal [19]: 273
- ECL signal [20]: 333
- ECL signal [21]: 252
B2: Fab VH1-46_IGHD6-6*01_IGHJ1*01 S102A/S103P/S104F (APF) & L6_IGKJ1*01 R91P (Fab, V domains shown)
VH: B1 VH with F111H
VL: EIVLTQSPATLSLSPGERATLSCRASQSVSSYLAWYQQKPGQAPRLLIYDASNRATGIPARFSGSGSGTDFTLTISSLEPEDFAVYYCQQPSNWPPWTFGQGTKVEIKR
notes: Fab made in E. coli: VH cloned into Plasmid A (CH1, His6 and Flag tags), VL into Plasmid C (kappa CL); also called APF / R91P

- ECL signal [22]: 437
- ECL signal [23]: 382
- ECL signal [24]: 459
- ECL signal [25]: 383
- ECL signal [26]: 367
- ECL signal [27]: 255
- ECL signal [28]: 526
- ECL signal [29]: 236
B3: Fab VH1-46_IGHD6-6*01_IGHJ1*01 S102A/S103P/S104F (APF) & L6_IGKJ1*01 R91L (Fab, V domains shown)
VH: B1 VH with F111H
VL: B2 VL with P91L
notes: Fab made in E. coli: VH cloned into Plasmid A (CH1, His6 and Flag tags), VL into Plasmid C (kappa CL); also called APF / R91L

- ECL signal [30]: 235
- ECL signal [31]: 260
- ECL signal [32]: 306
- ECL signal [33]: 170
- ECL signal [34]: 271
- ECL signal [35]: 239
- ECL signal [36]: 236
- ECL signal [37]: 163
B4: Fab VH1-46_IGHD6-6*01_IGHJ1*01 S102A/S103P/S104F (APF) & L6_IGKJ1*01 R91G (Fab, V domains shown)
VH: B1 VH with F111H
VL: B2 VL with P91G
notes: Fab made in E. coli: VH cloned into Plasmid A (CH1, His6 and Flag tags), VL into Plasmid C (kappa CL); also called APF / R91G

- Signal/Blank (Recombinant Human DLL4 [38]): 194
- ECL signal (Recombinant Human DLL4 [39]): 54100
B5: Fab VH1-46_IGHD6-6*01_IGHJ1*01 S102A/S103P/S104F/H111F (APFF) & L6_IGKJ1*01 S92T (Fab, V domains shown)
VH: B1 VH
VL: B2 VL with P91R, S92T
notes: Fab from E. coli; VH in Plasmid A (CH1, His6 and Flag tags), VL in Plasmid C (kappa CL); also called APFF & S92T
